The values that follow come from publication PMC10419011.

Where a chain is given by its changes, count along the chain named.

The target of assay [1] is neuropeptide Y (Homo sapiens), P01303. The assay is described as follows: competition. Conditions: remark: other sources report otherwise.
The target in assay [2] is K^18-TAMRA-NPY. Nature of the assay: fluorescence polarisation; various concentrations of receptor in small DMPC/DHPC bicelles with 50 nM (K^18-TAMRA)-NPY, 1 h at room temperature, measured at 20 °C; sigmoidal dose-response fit. In general terms: Polarisation of emitted light reports the rotation of a fluorescent probe.

B1: neuropeptide Y receptor Y2, P49146 (protein)
chain: MGPIGAEADENQTVEEMKVEQYGPQTTPRGELVPDPEPELIDSTKLIEVQVVLILAYCSIILLGVIGNSLVIHVVIKFKSMRTVTNFFIANLAVADLLVNTLCLPFTLTYTLMGEWKMGPVLCHLVPYAQGLAVQVSTITLTVIALDRHRCIVYHLESKISKRISFLIIGLAWGISALLASPLAIFREYSLIEIIPDFEIVACTEKWPGEEKSIYGTVYSLSSLLILYVLPLGIISFSYTRIWSKLKNHVSPGAANDHYHQRRQKTTKMLVCVVVVFAVSWLPLHAFQLAVDIDSQVLDLKEYKLIFTVFHIIAMCSTFANPLLYGWMNSNYRKAFLSAFRCEQRLDAIHSEVSVTFKAKKNLEVRKNSGPNDSFTEATNV
For orientation: Kd means the constant that tells how readily two partners part at equilibrium. Molecule B1 returned a dissociation constant (Kd) in assay [1] of 2.3 nM.

B2: Y2R_A202^45.49C-Δ6Cys-polyHis, P49146 1-381 (receptor)
chain: B1 chain with C58A, C103A, C151A, A202C, C272S, C316A, C342S
modifications: not checked
As for B2, in assay [2], the Kd was 61.4 nM.
